Test results published in patent US20240083959A1.

Target: T1, recombinant human LPHN2 lectin-olfactomedin-like-GAIN/GPS domain, residues F26-R796 (human), O95490
T1 chain: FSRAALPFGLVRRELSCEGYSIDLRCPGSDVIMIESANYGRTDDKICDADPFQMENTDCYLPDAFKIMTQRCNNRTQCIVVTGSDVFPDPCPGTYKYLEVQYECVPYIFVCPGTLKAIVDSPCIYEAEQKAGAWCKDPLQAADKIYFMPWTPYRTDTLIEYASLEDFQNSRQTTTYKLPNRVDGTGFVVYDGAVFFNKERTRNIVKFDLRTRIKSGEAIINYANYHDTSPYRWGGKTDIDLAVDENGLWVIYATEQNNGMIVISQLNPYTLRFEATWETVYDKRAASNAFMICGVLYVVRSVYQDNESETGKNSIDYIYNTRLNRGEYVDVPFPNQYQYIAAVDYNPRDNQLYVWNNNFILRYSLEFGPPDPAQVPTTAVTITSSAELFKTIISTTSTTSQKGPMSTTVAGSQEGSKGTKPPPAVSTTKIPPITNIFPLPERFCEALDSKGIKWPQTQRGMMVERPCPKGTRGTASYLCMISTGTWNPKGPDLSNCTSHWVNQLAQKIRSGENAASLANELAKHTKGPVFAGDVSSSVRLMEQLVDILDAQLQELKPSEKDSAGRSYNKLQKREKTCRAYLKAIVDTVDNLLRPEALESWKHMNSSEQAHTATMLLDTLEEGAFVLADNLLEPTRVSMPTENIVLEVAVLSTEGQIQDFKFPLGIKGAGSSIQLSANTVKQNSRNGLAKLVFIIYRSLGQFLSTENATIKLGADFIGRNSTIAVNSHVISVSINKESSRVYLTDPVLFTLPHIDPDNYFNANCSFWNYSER
Experiment: solid-phase binding (ELISA)
Conditions: ligand; chains chain; N-linked glycans removed with PNGase F (sites N79, N186, N269, N325 on SEQ ID NO: 1); remark: other sources report otherwise

B1: deglycosylated LRG1 (LRG1 treated with PNGase F), P02750 36-347 (protein)
chain: VTLSPKDCQVFRSDHGSSISCQPPAEIPGYLPADTVHLAVEFFNLTHLPANLLQGASKLQELHLSSNGLESLSPEFLRPVPQLRVLDLTRNALTGLPPGLFQASATLDTLVLKENQLEVLEVSWLHGLKALGHLDLSGNRLRKLPPGLLANFTLLRTLDLGENQLETLPPDLLRGPLQLERLHLEGNKLQVLGKDLLLPQPDLRYLFLNGNKLARVAAGAFQGLRQLDMLDLSNNSLASVPEGLWASLGQPNWDMRDGFDISGNPWICDQNLSDLYRWLQAQKDKMFSQNDTRCAGPEAVKGQTLLAVAKSQ
Kd: 840 nM
